“And” between values parts separate entries of the source, which are not always exact repeats. Equal entries are not always repeated.
Molecular target: Hfq-FLAG (Yersinia pestis Hfq with C-terminal 3×FLAG tag) (Yersinia pestis)
Test: […]; 25 mM Tris-HCl (pH 8.0) […]

Hfq-FLAG (Yersinia pestis Hfq with C-terminal 3×FLAG tag) (natural protein)
stoichiometry N: 3 and 6

Source: article PMC6635623
